{"source": "paper PMC3173395", "about": "“Characterization of the latent membrane protein 1 signaling complex of Epstein-Barr virus in the membrane of mammalian cells with bimolecular fluorescence complementation” (Virology Journal, 2011)", "binders": {"B1": {"name": "CYFP-TRAF2 (CYFP fused to the amino-terminus of TRAF2, amino acids 98-501) (domain or fragment)", "chain": "REVESLPAVCPSDGCTWKGTLKEYESCHEGRCPLMLTECPACKGLVRLGEKERHLEHECPERSLSCRHCRAPCCGADVKAHHEVCPKFPLTCDGCGKKKIPREKFQDHVKTCGKCRVPCRFHAIGCLETVEGEKQQEHEVQWLREHLAMLLSSVLEAKPLLGDQSHAGSELLQRCESLEKKTATFENIVCVLNREVERVAMTAEACSRQHRLDQDKIEALSSKVQQLERSIGLKDLAMADLEQKVLEMEASTYDGVFIWKISDFARKRQEAVAGRIPAIFSPAFYTSRYGYKMCLRIYLNGDGTGRGTHLSLFFVVMKGPNDALLRWPFNQKVTLMLLDQNNREHVIDAFRPDVTSSSFQRPVNDMNIASGCPLFCPVSKMEAKNSYVRDDAIFIKAIVDLTGL"}}, "molecular_target": "T1, A5-Y384G-NYFP (full-length LMP1 with mutations in CTAR1 and CTAR2, NYFP at the C-terminus) (Epstein-Barr virus, B95-8 strain, UniProt P03230 1-386, amino acids 204-208 PQQAT mutated to AAAAA | Y384G)", "T1 sequence": "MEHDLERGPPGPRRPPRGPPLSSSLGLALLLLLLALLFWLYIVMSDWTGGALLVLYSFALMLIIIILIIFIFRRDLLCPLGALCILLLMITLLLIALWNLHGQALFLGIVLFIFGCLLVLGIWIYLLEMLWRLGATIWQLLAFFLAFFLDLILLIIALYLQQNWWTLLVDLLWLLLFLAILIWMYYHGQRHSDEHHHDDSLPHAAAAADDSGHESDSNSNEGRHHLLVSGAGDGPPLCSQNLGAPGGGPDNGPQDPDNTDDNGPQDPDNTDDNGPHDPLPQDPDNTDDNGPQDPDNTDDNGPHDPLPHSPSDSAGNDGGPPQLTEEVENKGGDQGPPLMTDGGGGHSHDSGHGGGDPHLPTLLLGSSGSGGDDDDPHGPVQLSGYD", "experiment": "cell-based or functional assay"}
{"binder": "B1", "values": [{"measurement": "NF-kB luciferase reporter activity in HEK-293T cells transfected with A5-Y384G-NYFP + A5-Y384G-CYFP (A5-Y384G BiFC), fold above vector; about 50% of LMP1 and LMP1-BiFC", "value": "~22", "unit": "fold"}]}
